{
  "source": "paper PMC5730568",
  "key": {"[1]": {"test_system": "GST-MBNL1-His6 (truncated 41-kDa isoform)", "assay": "filter binding", "conditions": "MBNL1 filter binding: 250 mM NaCl, 15 mM KCl, 50 mM Tris-HCl pH 8.0, 0.05% Tween-20, 1 mM MgCl2, 37 C, 15 min, SRSF1 EMSA: 100 mM NaCl, 20 mM HEPES-Na pH 8.0 …"}, "[2]": {"target": "SRSF1-His6 (23 kDa) (UniProt Q07955)", "sequence (Q07955 1-186)": "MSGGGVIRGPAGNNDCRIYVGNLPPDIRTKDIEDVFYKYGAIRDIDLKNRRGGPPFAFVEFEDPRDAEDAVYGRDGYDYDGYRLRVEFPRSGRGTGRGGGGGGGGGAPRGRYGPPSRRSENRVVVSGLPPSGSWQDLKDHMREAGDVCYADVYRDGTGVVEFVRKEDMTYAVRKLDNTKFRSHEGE", "assay": "EMSA", "conditions": "MBNL1 filter binding: 250 mM NaCl, 15 mM KCl, 50 mM Tris-HCl pH 8.0, 0.05% Tween-20, 1 mM MgCl2, 37 C, 15 min, SRSF1 EMSA: 100 mM NaCl, 20 mM HEPES-Na pH 8.0 …"}},
  "data": [
    {"substance": "Atp2a1-RNA", "values": [
      {"measurement": "binding signal (fold suppression)", "setting": "[1]; 0.5 uM 2'OMe AON (S4)", "value": 8},
      {"measurement": "binding signal (fold suppression)", "setting": "[1]; 0.5 uM 2'OMe-PS AON (S5)", "value": 8},
      {"measurement": "binding signal (fold suppression)", "setting": "[1]; 20 uM DNA AON (S120)", "value": 8}
    ]},
    {"substance": "GGGUUGGUACUAAGAAGUGCCUUUCCUGACGUCUCUGCUGCUUGGAACCGCUUCUAGAGCAGCCUCUGCUUUUGCCUUGCUUGCUGCCAGCUAGACUGACGACAGCACAUCCGCCCUCCACCUCUAGCCCAGACACCCCAUUUCUACUUCUAAUCAGGAGAAAAGCUCUGAGUAUCUGCCAUUGCCCUAGG [Mbnl1-RNA]", "values": [
      {"measurement": "Kd", "setting": "[2]", "value": 13, "unit": "nM"}
    ]},
    {"substance": "Mbnl1-RNA", "values": [
      {"measurement": "Kd", "setting": "[2]; no AON", "value": 13, "unit": "nM"}
    ]},
    {"substance": "Nfix-RNA", "values": [
      {"measurement": "Kd", "setting": "[2]; no AON", "value": 60, "unit": "nM"}
    ]}
  ]
}
